Data from patent US20090292112A1 (published 2009).

Biological target: T1, RG1 polypeptide (native RG1 protein, purified from transfected BHK cells) (human, UniProt Q9BUD6 27-331)
T1 construct: The Biacore assay used BHK-RG1; The Western blots used RG1 from COS, LNCaP and BHK cells and from lysates; also called nRG1; BHK-RG1
T1 chain: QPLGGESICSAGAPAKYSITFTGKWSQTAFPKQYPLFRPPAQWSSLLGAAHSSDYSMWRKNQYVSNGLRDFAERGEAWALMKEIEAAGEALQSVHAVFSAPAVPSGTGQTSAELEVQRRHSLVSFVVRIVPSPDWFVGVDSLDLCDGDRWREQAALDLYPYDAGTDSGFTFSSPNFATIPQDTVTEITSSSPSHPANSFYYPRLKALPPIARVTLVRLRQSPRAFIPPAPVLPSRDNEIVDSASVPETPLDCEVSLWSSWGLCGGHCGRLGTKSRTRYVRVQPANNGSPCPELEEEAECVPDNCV
Assay: BIAcore SPR; mab captured on anti-human IgG Fc, soluble BHK-RG1 12.5-400 nM, 1:1 Langmuir fit
Experimental: Kinetic constants (KD, kₐ and kd) of mab binding to native RG1 protein were determined by BIAcore using a capture format in which soluble, native RG1 protein was bound to immobilized mab on a sensor chip. ImmunoPure rabbit anti-human IgGFc (Pierce, 31142) was covalently immobilized to the Sensor Chip CM5 (Biacore, BR-1000-12) using standard amine coupling methods. 100 ug/ml antibody diluted in 10 mm acetate, pH 4.0 was used at 5 ul/min. HBS-EP (Biacore, BR-1001-88) was used as mobile phase. Unreacted sites were blocked with ethanolamine. Mabs were diluted to 200 nM with HBS and 50 ul was injected per cycle at 10 ul/min. Serial dilutions of BHK-RG1 (12.5-400 nM) were bound to the immobilized mab. Dissociation kinetics were measured immediately after the antigen injection was completed at 20 ul/min for 8 minutes. The surface was regenerated following each cycle using 25 ul of 10 mm glycine, pH 1.8 and then washed with HBS.
Data were fit to a 1:1 Langmuir model using the software provided by the instrument manufacturer (BIAevaluation 3.0), and kinetic constants were calculated.

B1: human RG1 monoclonal antibody B (antibody, V domains shown)
VH: EVQLVQSGGGLVMPGGSLRLSCAGSGFTFSSYVMHWLRQAPGKGLEWVSVIGTGGVTHYADSVKGRFMISRDNAKNSLYLQMNSLRAEDTAMYYCARWGYYGSGSYENDAFDIWGQGTMVTVSS
VL: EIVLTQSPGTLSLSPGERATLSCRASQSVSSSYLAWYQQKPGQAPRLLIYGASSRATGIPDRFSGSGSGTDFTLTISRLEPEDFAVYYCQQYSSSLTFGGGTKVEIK
notes: Hybridomas were screened for human IgG,kappa, and the isotype of this clone is not explicitly stated; also called M ab B
Kd: 8.4 nM
koff: 0.00023 s⁻¹
kon: 29000 M⁻¹ s⁻¹
